According to article PMC7112767:

Target: IL-1β mutant with pBpa at position 63 (Homo sapiens)
Test: cross-linking

Substance: monoclonal phage displaying the scFv of canakinumab
- UV output (CFU): 6400 CFU
- UV/non-UV output ratio: 3.8
